Paper PMC3328272, “HIV-1 Nef interaction influences the ATP-binding site of the Src-family kinase, Hck” (BMC Chemical Biology, 2012)

Biological target: T1, HIV-1 Nef-SF2, untagged (HIV-1 (SF2), UniProt P03407)
T1 construct: also called Nef (B-clade allele SF2); source: E. coli, purified without N-terminal His tag (anion exchange HiPrep Q FF, gel filtration Superdex 75)
Assay: SPR
Conditions: both partners purified

T1 sequence (P03407 whole entry): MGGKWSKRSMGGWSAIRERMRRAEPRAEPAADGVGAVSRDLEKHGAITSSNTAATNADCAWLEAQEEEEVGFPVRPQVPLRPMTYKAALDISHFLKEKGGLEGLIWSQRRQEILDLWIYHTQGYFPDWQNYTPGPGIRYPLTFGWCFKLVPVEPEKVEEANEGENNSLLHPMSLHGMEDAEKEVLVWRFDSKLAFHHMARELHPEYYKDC

Binder | Kd | koff | kon
wild-type human Hck SH3 domain (domain or fragment, also called hHck SH3; source: E. coli BL21(DE3)pLysS, purified (anion exchange, IMAC, size-exclusion chromatography)) not shown | 70 ± 10 nM | 0.0118 ± 0.04 s⁻¹ | 160000 ± 0.06 M⁻¹ s⁻¹
wild-type mouse Hck SH3 domain (domain or fragment, UniProt P08103 76-136, looked up, also called mHck SH3; mSH3; source: E. coli BL21(DE3)pLysS, purified (anion exchange, IMAC, size-exclusion chromatography)) SEDTIVVALYDYEAIHREDLSFQKGDQMVVLEEAGEWWKARSLATKKEGYIPSNYVARVNS | 130 ± 30 nM | 0.07 ± 0.36 s⁻¹ | 554000 ± 1.77 M⁻¹ s⁻¹
